Assay results taken from patent US7026443.
Where two headings read alike, the source gives them in different places.

How the values were obtained:
[1] = target: HLA-A*1101 (human); assay: competition with 125I-labelled standard peptide for purified HLA-A*1101, gel filtration
[2] = target: HLA-A*0101 (human); assay: competition with 125I-labelled standard peptide for purified HLA-A*0101, gel filtration
[3] = target: HLA-A*1101 (purified HLA class I molecule) (human); assay: competition with 125I-labelled standard peptide for purified HLA-A*1101, gel filtration
[4] = target: HLA-A*1101 (purified HLA class I molecule) (human)
[5] = target: HLA-B*0702 (human); assay: competition with 125I-labeled standard peptide for purified HLA, gel filtration
[6] = target: HLA-B*5101 (human); assay: competition with 125I-labeled standard probe peptide for purified HLA, gel filtration; details: for relative binding ratio: scale: ratio
[7] = target: HLA-B*5401 (human); assay: as above; details: for relative binding ratio: scale: ratio
[8] = target: HLA-B*5301 (human); assay: as above; details: for relative binding ratio: scale: ratio
[9] = target: HLA-B*0702 (human); assay: as above; details: for relative binding ratio: scale: ratio
[10] = target: HLA-B*3501 (human); assay: as above; details: for relative binding ratio: scale: ratio
[11] = target: HLA-A*2402 (human); assay: competition with 125I-labelled standard probe peptide for purified HLA-A*2402, gel filtration
[12] = target: HLA-A*2402 (human); assay: competition with 125I-labelled standard peptide for purified HLA-A*2402, gel filtration
[13] = target: HLA-A*0301 (human); assay: inhibition of 125I-labeled standard peptide binding to purified HLA, gel filtration
[14] = target: HLA-A*1101 (human); assay: as above
[15] = target: HLA-A*0201 (purified HLA class I molecule) (human)
[16] = target: HLA-A*0101 (human); assay: competition with 125I-labelled standard peptide 944.02 ([..]) for purified HLA-A*0101, gel filtration; details: remark: other sources report otherwise
[17] = target: HLA-A*0301 (human); assay: competition with 125I-labeled standard peptide for purified HLA-A*0301, gel filtration
[18] = target: HLA-A*0301 (human); assay: competitive inhibition of 125I-labelled standard peptide binding to purified HLA-A*0301, gel filtration; details: remark: other sources report otherwise
[19] = remark: other sources report otherwise

Binder: HGDTPTLHEY (modifications not checked) [… (HPV16 E7, position 2, 10 amino acids)]
- relative binding ratio (IC50 of standard peptide / IC50 of test peptide) [1, 19]: 0.0001
- relative binding ratio (IC50 of standard peptide / IC50 of test peptide) [2, 19]: 0.003

Binder: PLNPAEKLR (modifications not checked) [HPV18 E6 111-119 peptide …]
- relative binding ratio (IC50 of standard peptide / IC50 of test peptide) [3]: 0.0005

Binder: LTEVFEFAFK (modifications not checked) [HPV18 E6 41-50 peptide …]
- relative binding ratio (IC50 of standard peptide / IC50 of test peptide) [4]: 0.036

Binder: LPQLCTEL (modifications not checked) [HPV16 E6 19 LPQLCTEL]
- binding affinity ratio (IC50 of standard peptide / IC50 of test peptide) [5]: 0.0055

Binder: EPDRAHYNIV (modifications not checked)
- relative binding ratio [6, 19]: 0.0001
- relative binding ratio [7, 19]: 0.0001
- relative binding ratio [8, 19]: 0.0001
- relative binding ratio [9, 19]: 0.0001
- relative binding ratio [10, 19]: 0.0001

Binder: GTTLEQQY (modifications not checked) [GTTLEQQY (HPV16 E6, position 92, 8 amino acids)]
- relative binding ratio (IC50 of standard peptide / IC50 of test peptide) [2]: 0.0006

Binder: VCDKCLKFY (modifications not checked) [… (HPV16 E6, position 69, 9 amino acids)]
- relative binding ratio (IC50 of standard peptide / IC50 of test peptide) [1]: 0.0002
- relative binding ratio (IC50 of standard peptide / IC50 of test peptide) [2]: 0.0017

Binder: VVYRDSIPH (modifications not checked) [HPV18 E6 54-62 peptide …]
- relative binding ratio (IC50 of standard peptide / IC50 of test peptide) [4]: 0.38

Binder: TGLYNLLIR (modifications not checked) [HPV18 E6 96-104 peptide …]
- relative binding ratio (IC50 of standard peptide / IC50 of test peptide) [4]: 0.0002

Binder: QYNKPLCDL (modifications not checked)
- relative binding ratio (IC50 of standard peptide / IC50 of test peptide) [11]: 0.0001
- relative binding ratio (IC50 of standard peptide / IC50 of test peptide) (ratio to standard peptide) [12]: 0.0001

Binder: SPRLQEISL (modifications not checked) [HPV18 E1 110 peptide …]
- binding affinity ratio (IC50 of standard peptide / IC50 of test peptide) [6]: 0.0005
- binding affinity ratio (IC50 of standard peptide / IC50 of test peptide) [8]: 0.0002
- binding affinity ratio (IC50 of standard peptide / IC50 of test peptide) [9]: 0.62
- binding affinity ratio (IC50 of standard peptide / IC50 of test peptide) [10]: 0.0008

Binder: NTGLYNLLIR (modifications not checked) [HPV18 E6 95-104 peptide …]
- relative binding ratio (IC50 of standard peptide / IC50 of test peptide) [4]: 0.0013

Binder: SPLGERLEV (modifications not checked) [HPV18 E1 97 peptide …]
- binding affinity ratio (IC50 of standard peptide / IC50 of test peptide) [6]: 0.0002
- binding affinity ratio (IC50 of standard peptide / IC50 of test peptide) [7]: 0.0011
- binding affinity ratio (IC50 of standard peptide / IC50 of test peptide) [8]: 0.0002
- binding affinity ratio (IC50 of standard peptide / IC50 of test peptide) [9]: 0.13
- binding affinity ratio (IC50 of standard peptide / IC50 of test peptide) [10]: 0.0003

Binder: GMVVLLLVR (modifications not checked) [HPV16 E1 peptide … (position 272, 9 amino acids)]
- binding affinity ratio (IC50 of standard peptide / IC50 of test peptide) [13]: 0.0036
- binding affinity ratio (IC50 of standard peptide / IC50 of test peptide) [14]: 0.0082

Binder: RARQERLQR (modifications not checked) [HPV18 E6 144-152 peptide …]
- relative binding ratio (IC50 of standard peptide / IC50 of test peptide) [3]: 0.0002

Binder: ALYWYRTGI (modifications not checked) [HPV45 E1 peptide … (position 311, 9 amino acids)]
- relative binding ratio (IC50 of standard peptide / IC50 of test peptide) [15]: 0.0032

Binder: IVYRDGNPY (modifications not checked) [HPV16 E6 59 …]
- relative binding ratio (IC50 of standard peptide / IC50 of test peptide) [11, 19]: 0.0001
- binding affinity ratio (IC50 of standard peptide / IC50 of test peptide) [16]: 0.0018

Binder: QPETTDLY (modifications not checked) [QPETTDLY (HPV16 E7, position 16, 8 amino acids)]
- relative binding ratio (IC50 of standard peptide / IC50 of test peptide) [2]: 0.001

Binder: ETTDLYCY (modifications not checked) [ETTDLYCY (HPV16 E7, position 18, 8 amino acids)]
- relative binding ratio (IC50 of standard peptide / IC50 of test peptide) [1, 19]: 0.0001
- relative binding ratio (IC50 of standard peptide / IC50 of test peptide) [2, 19]: 0.078

Binder: VMFLRYQGV (modifications not checked) [HPV16 E1 peptide … (position 443, 9 amino acids)]
- relative binding ratio (IC50 of standard peptide / IC50 of test peptide) (ratio to standard peptide) [15]: 0.014

Binder: EPDRAHYNI (modifications not checked)
- relative binding ratio [6]: 0.0031
- relative binding ratio [7]: 0.0002
- relative binding ratio [8]: 0.0017
- relative binding ratio [9]: 0.0001
- relative binding ratio [10]: 0.0001

Binder: RFHNIAGHYR (modifications not checked) [HPV18 E6 126-135 peptide …]
- relative binding ratio (IC50 of standard peptide / IC50 of test peptide) [4]: 0.0057

Binder: YLVSPLSDI (modifications not checked) [HPV16 E1 peptide … (position 90, 9 amino acids)]
- relative binding ratio (IC50 of standard peptide / IC50 of test peptide) (ratio to standard peptide) [15]: 0.02

Binder: RFHNIAGHY (modifications not checked) [HPV18 E6 126-134 peptide …]
- relative binding ratio (IC50 of standard peptide / IC50 of test peptide) [4]: 0.0002

Binder: PPKLRSTAA (modifications not checked) [HPV16 E1 309 …]
- binding affinity ratio (IC50 of standard peptide / IC50 of test peptide) [5]: 0.0014

Binder: TPTLHEYML (modifications not checked) [HPV16 E7 5 …]
- relative binding ratio [6, 19]: 0.0001
- relative binding ratio [7, 19]: 0.0002
- relative binding ratio [8, 19]: 0.0001
- relative binding ratio [9, 19]: 0.11
- relative binding ratio [10, 19]: 0.0001

Binder: LTNILNVLK (modifications not checked) [HPV16 E1 peptide … (position 191, 9 amino acids)]
- binding affinity ratio (IC50 of standard peptide / IC50 of test peptide) [13]: 0.0086
- binding affinity ratio (IC50 of standard peptide / IC50 of test peptide) [14]: 0.42

Binder: QYNKPLCDLL (modifications not checked)
- relative binding ratio (IC50 of standard peptide / IC50 of test peptide) [11]: 0.0015
- relative binding ratio (IC50 of standard peptide / IC50 of test peptide) (ratio to standard peptide) [12]: 0.0015

Binder: CMCCKCEARIK (modifications not checked) [HPV18 E7 63-73 peptide …]
- relative binding ratio (IC50 of standard peptide / IC50 of test peptide) [3]: 0.0002
- relative binding ratio (IC50 of standard peptide / IC50 of test peptide) [17]: 0.0014

Binder: QAEPDRAHY (modifications not checked) [… (HPV16 E7, position 44, 9 amino acids)]
- relative binding ratio (IC50 of standard peptide / IC50 of test peptide) [1]: 0.0002
- relative binding ratio (IC50 of standard peptide / IC50 of test peptide) [2]: 0.021

Binder: KAAMLAKFK (modifications not checked) [HPV16 E1 peptide … (position 204, 9 amino acids)]
- binding affinity ratio (IC50 of standard peptide / IC50 of test peptide) [13]: 0.11
- binding affinity ratio (IC50 of standard peptide / IC50 of test peptide) [14]: 0.18

Binder: ALDGNPISI (modifications not checked) [HPV45 E1 peptide … (position 532, 9 amino acids)]
- relative binding ratio (IC50 of standard peptide / IC50 of test peptide) [15]: 0.021

Binder: RFEDPTRRPY (modifications not checked) [HPV18 E6 3-12 peptide …]
- relative binding ratio (IC50 of standard peptide / IC50 of test peptide) [3]: 0.0002

Binder: SVYGDTLEK (modifications not checked) [HPV18 E6 84-92 peptide …]
- relative binding ratio (IC50 of standard peptide / IC50 of test peptide) [4]: 0.23

Binder: DTPTLHEY (modifications not checked) [DTPTLHEY (HPV16 E7, position 4, 8 amino acids)]
- relative binding ratio (IC50 of standard peptide / IC50 of test peptide) [2]: 0.0002

Binder: SIPHAACHK (modifications not checked) [HPV18 E6 59-67 peptide …]
- relative binding ratio (IC50 of standard peptide / IC50 of test peptide) [3]: 0.12

Binder: NPYAVCDKCL (modifications not checked) [HPV16 E6 65 …]
- relative binding ratio [6]: 0.0001
- relative binding ratio [7]: 0.0001
- relative binding ratio [8]: 0.0001
- relative binding ratio [9]: 0.0001
- relative binding ratio [10]: 0.0001

Binder: AICIEKQSR (modifications not checked) [HPV16 E1 peptide … (position 112, 9 amino acids)]
- binding affinity ratio (IC50 of standard peptide / IC50 of test peptide) [13]: 0.001
- binding affinity ratio (IC50 of standard peptide / IC50 of test peptide) [14]: 0.0057
- relative binding ratio (IC50 of standard peptide / IC50 of test peptide) (ratio to standard peptide) [17]: 0.001

Binder: ETTDLYCY (modifications not checked) [HPV16 E7 18 ETTDLYCY]
- relative binding ratio (IC50 of standard peptide / IC50 of test peptide) (ratio to standard peptide) [18]: 0.0002
- relative binding ratio (IC50 of standard peptide / IC50 of test peptide) [11, 19]: 0.0001
- binding affinity ratio (IC50 of standard peptide / IC50 of test peptide) [16]: 0.078

Binder: PYAVCDKCLKF (modifications not checked) [HPV16 E6 66 …]
- relative binding ratio (IC50 of standard peptide / IC50 of test peptide) [11]: 0.11
- relative binding ratio (IC50 of standard peptide / IC50 of test peptide) (ratio to standard peptide) [12]: 0.11

Binder: LSLHEDEDK (modifications not checked) [HPV16 E1 peptide … (position 620, 9 amino acids)]
- binding affinity ratio (IC50 of standard peptide / IC50 of test peptide) [13]: 0.0005
- binding affinity ratio (IC50 of standard peptide / IC50 of test peptide) [14]: 0.0002
